The results in this text go back to patent publication US5654398, “Compositions and methods for inhibiting replication of human immunodeficiency virus-1” (The Regents of the University of California).

In the data set the target is Rev34-50 peptide I (free N- and C-termini) (HIV-1). The data set can be described thus: EMSA; apparent nonspecific Kd with tRNA, 4 C. The settings on record: protein: synthetic; tags: synthetic peptide, unmodified termini; label: 32P; stem-loop with internal bulge. On the technique in general: Mobility shift assays separate free from complexed probe on a gel.

On to GGCUGGUAUCGGCGCAGCGUCAAUGACGCUGACGGUAGAGGCCAGCC (ssRNA, [10,38]) [RRE IIB C46-G74 mutant], for which the Kd was 3000 nM.
